The values that follow come from patent US20090155285A1 (Eli Lilly, published 2009).

The target of assay [1] is T1, mature human TGF-β2 (human, UniProt P61812 303-414).
T1 sequence: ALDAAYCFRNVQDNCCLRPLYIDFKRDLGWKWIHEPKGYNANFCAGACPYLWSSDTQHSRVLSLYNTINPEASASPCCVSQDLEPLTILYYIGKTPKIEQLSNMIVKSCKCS
Description: cell-based or functional assay.

Assay [2] deals with T2, mature human TGF-β3 (human, UniProt P10600 301-412).
T2 sequence: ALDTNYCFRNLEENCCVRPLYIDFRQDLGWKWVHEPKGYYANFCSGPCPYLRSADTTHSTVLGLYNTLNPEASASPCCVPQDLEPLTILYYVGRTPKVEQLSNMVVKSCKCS
Description: cell-based or functional assay.

In assay [3] the target is T3, mature human TGF-β1 (human, UniProt P01137 279-390). Description: cell-based or functional assay.
T3 sequence (P01137 279-390 limits assumed): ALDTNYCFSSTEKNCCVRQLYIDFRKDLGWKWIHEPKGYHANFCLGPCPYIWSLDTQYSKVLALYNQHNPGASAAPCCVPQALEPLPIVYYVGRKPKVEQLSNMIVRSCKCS
Assay [4] deals with T1, mature human TGF-β2. Description: BIAcore 2000 SPR, antibody captured on Protein A, TGF-β injected. On the procedure:
(§1) Alternate methods of measuring kinetic constants are known, for example: affinity of an invention antibody for TGF-β1 (R&D Systems, Cat # 240-B/CF), TGF-β2 (RDI, Cat #RDI-1035), and TGF-β3 (RDI, Cat # RDI-1036/CF) is measured by BIAcore® 2000. Binding affinity measurements for full-length monoclonal antibodies of the invention are determined using Biacore. Except as noted, all reagents and materials are purchased from BIAcore® AB (Upsala, Sweden). All measurements made at room temperature. Samples are dissolved in HBS-EP buffer (150 mM sodium chloride, 3 mM EDTA, 0.01% (w/v) surfactant P-20, and 10 mM HEPES, pH 7.4). Recombinant Protein A is immobilized on all four flow cells of a CM4 sensor chip at a level of 400-450 response units (RUs) using an amine coupling kit. Binding is evaluated using multiple analytical cycles. Each cycle is performed at a flow rate of 50 μL/min consisting of the steps: injection of 12 μL of antibody at 0.5 μg/mL, injection of 250 μL of TGF-β1 (starting at 5 nM and using two-fold serial dilutions to 0.13 nM for each cycle, with two injections for each concentration) followed by either a short (5 min) or long (120 min) delay for dissociation, and regeneration using two injections of 50 μL of 10 mM glycine hydrochloride, pH 1.5. Association and dissociation rates per cycle are made by fitting the biosensor data from a simple association model using ClampXP (Center for Biomolecular Interaction Analysis, Univ. of Utah) to extract the kₒₙ and koff rate constants; the equilibrium binding constant Kd is calculated from Kd=koff/kₒₙ.
(§2) When mAbs are measured using the described assay, the results are as stated in Table 2 below.
A general note: SPR reads the build-up and loss of mass on a sensor chip optically.

The target in assay [5] is T2, mature human TGF-β3. The assay is described as above. How it is done:
as §1, §2

Assay [6] deals with T3, mature human TGF-β1. The assay is described as above. How it is done:
as §1, §2

Assay [7] concerns the target T3, mature human TGF-β1. The assay can be described thus: KinExA 3000, calculated from Kd and kon. On the procedure:
(§3) A KinExA 3000 instrument (Sapidyne Inst. Inc.) measures binding kinetics. Briefly, antigen is covalently-coupled to azlactone beads and the binding of an invention free Fab to the beads is detected on the instrument. […] After incubation, free Fab in each equilibrated sample is determined on KinExA 3000 per manufacturer instructions. Kd values are determined using KinExA 3000 software. To measure kₒₙ, individual Fabs at 2 nM are mixed with 0-240 nM of antigen using the injection method according to manufacturer's instructions, and the unbound Fab is detected. The resulting data is used to calculate the kₒₙ with KinExA 3000 software. The koff is calculated using the formula K_{d=k}off/kₒₙ. Affinity data obtained under KinExA© conditions for Fab embodiments binding TGF Beta 1 are shown below in Table 1.

The target in assay [8] is T3, mature human TGF-β1. Description: KinExA 3000, equilibrium in solution. On the procedure:
as §3
(In general: Kinetic exclusion samples the free partner from a solution-phase mixture.)

The target of assay [9] is T3, mature human TGF-β1. Description: KinExA 3000, solution phase, antigen-coupled beads. How it is done: as §3

B1: 1D11.16 (antibody, from another filing, V domains shown)
VH: QVQLQQSGPELVRPGASVKLSCKASGYIFITYWMNWVKQRPGQGLEWIGQIFPASGSTNYNEMFEGKATLTVDTSSSTAYMQLSSLTSEDSAVYYCARGDGNYALDAMDYWGQGTSVTVSS
VL: DIVLTQSPASLAVSLGQRATISCRASESVDSYGNSFMHWYQQKSGQPPKLLIYLASNLESGVPARFSGSGSRTDFTLTIDPVEADDAATYYCQQNNEDPLTFGAGTKLEIK
In the case of B1, the HT-2 cell neutralization assay, IC50 (Mean ng/ml) is 574 ng/mL with mature human TGF-β2 [1], 100 ng/mL with mature human TGF-β3 [2] and 215 ng/mL in the assay with mature human TGF-β1 [3].

B2: mAb 12.4 (antibody, human IgG4 S228P, kappa, V domains shown)
VH: QVQLVQSGAEVKKPGASVKVSCKASGYTFTSYWMNWVRQAPGQGLEWMGQIFPALGSTNYGEMFEGRVTMTTDTSTSTAYMELRSLRSDDTAVYYCARGIGNYALDAMDYWGQGTLVTVSS
VL: DIQMTQSPSSLSASVGDRVTITCRASESVDWWGNSFMHWYQQKPGKAPKLLIYLASNLESGVPSRFSGSGSGTDFTLTISSLQPEDFATYYCQQNIEDPLTFGGGTKVEIKR
notes: Full-length monoclonal antibody, made by linking the Fab to an IgG4 Fc region
As to B2, the Kd (usually a measure of binding affinity in units of concentration) with mature human TGF-β2 [4] was 0.265 pM; with mature human TGF-β3 [5], 0.851 pM; with mature human TGF-β1 [6] it was under 0.2 pM. The dissociation rate constant (koff) – broadly, the rate constant with which the complex falls apart – with mature human TGF-β2 [4] was 6e-06 s⁻¹; in the assay with mature human TGF-β3 [5], 1.53e-05 s⁻¹; in the assay with mature human TGF-β1 [6], 6.71e-06 s⁻¹. The kon – broadly, the second-order rate constant of association – with mature human TGF-β2 [4] is 2.42e+07 M⁻¹ s⁻¹; in the assay with mature human TGF-β3 [5] it was 1.76e+07 M⁻¹ s⁻¹; with mature human TGF-β1 [6], over 4e+07 M⁻¹ s⁻¹. Further, the “HT-2 cell neutralization assay, IC50 (Mean ng/ml)” value (“HT-2 cell neutralization assay” below) came to 6.14 ng/mL in the assay with mature human TGF-β2 [1], 5.22 ng/mL with mature human TGF-β3 [2] and 0.44 ng/mL with mature human TGF-β1 [3].

B3: Fab 3.A (Fab, V domains shown)
VH: QVQLVQSGAEVKKPGASVKVSCKASGYTFTSYWMNWVRQAPGQGLEWMGQIFPASGSTNYGEMFEGRVTMTTDTSTSTAYMELRSLRSDDTAVYYCARGIGNYALDAMDYWGQGTLVTVSS
VL: DIQMTQSPSSLSASVGDRVTITCRASESVDFWGNSFMHWYQQKPGKAPKLLIYLASNLESGVPSRFSGSGSGTDFTLTISSLQPEDFATYYCQQNIEDPLTFGGGTKVEIKR
notes: The mAb was made by linking the Fab to an IgG4 Fc region, so the mAb's chains are named; The heavy chain entry also holds the Fc, which is not in the Fab
Take B3: the off-rate (koff) with mature human TGF-β1 [7] was 0.00031 s⁻¹. In the assay with mature human TGF-β1 [8], the equilibrium dissociation constant (Kd) came to 15 pM. This molecule also displayed a kon with mature human TGF-β1 [9] of 2.1e+07 M⁻¹ s⁻¹.

B4: Fab 12.4 (Fab, V domains shown)
VH: QVQLVQSGAEVKKPGASVKVSCKASGYTFTSYWMNWVRQAPGQGLEWMGQIFPALGSTNYGEMFEGRVTMTTDTSTSTAYMELRSLRSDDTAVYYCARGIGNYALDAMDYWGQGTLVTVSS
VL: DIQMTQSPSSLSASVGDRVTITCRASESVDWWGNSFMHWYQQKPGKAPKLLIYLASNLESGVPSRFSGSGSGTDFTLTISSLQPEDFATYYCQQNIEDPLTFGGGTKVEIKR
notes: as for B3
Consider B4, for which, in the assay with mature human TGF-β1 [7], the koff was 5.2e-05 s⁻¹. In the assay with mature human TGF-β1 [8], this molecule came in with a Kd of 1.55 pM. Also, the kon with mature human TGF-β1 [9] came out at 3.4e+07 M⁻¹ s⁻¹.

B5: mAb 12.7 (antibody, human IgG4 S228P, kappa, V domains shown)
VH: QVQLVQSGAEVKKPGASVKVSCKASGYTFTSEWMNWVRQAPGQGLEWMGQIFPALGSTNYNEMYEGRVTMTTDTSTSTAYMELRSLRSDDTAVYYCARGIGNYALDAMDYWGQGTLVTVSS
VL: DIQMTQSPSSLSASVGDRVTITCRASESVDFYGNSFMHWYQQKPGKAPKLLIYLASNLESGVPSRFSGSGSGTDFTLTISSLQPEDFATYYCQQNIEDPLTFGGGTKVEIKR
notes: as for B2
On to B5, for which the Kd is 0.473 pM with mature human TGF-β2 [4], 0.82 pM in the assay with mature human TGF-β3 [5] and under 0.2 pM with mature human TGF-β1 [6]. Further, the koff with mature human TGF-β2 [4] turned out to be 1.11e-05 s⁻¹; in the assay with mature human TGF-β3 [5] it was 1.28e-05 s⁻¹; with mature human TGF-β1 [6] it was 7.93e-06 s⁻¹. In addition, the association rate constant (kon) was 2.8e+07 M⁻¹ s⁻¹ with mature human TGF-β2 [4], 1.56e+07 M⁻¹ s⁻¹ with mature human TGF-β3 [5] and over 5e+07 M⁻¹ s⁻¹ with mature human TGF-β1 [6]. Besides, the “HT-2 cell neutralization assay” value with mature human TGF-β2 [1] was 3.34 ng/mL; with mature human TGF-β3 [2], 6.78 ng/mL; with mature human TGF-β1 [3], 0.59 ng/mL.

B6: mAb 3.A (antibody, human IgG4 S228P, kappa, V domains shown)
VH: QVQLVQSGAEVKKPGASVKVSCKASGYTFTSYWMNWVRQAPGQGLEWMGQIFPASGSTNYGEMFEGRVTMTTDTSTSTAYMELRSLRSDDTAVYYCARGIGNYALDAMDYWGQGTLVTVSS
VL: DIQMTQSPSSLSASVGDRVTITCRASESVDFWGNSFMHWYQQKPGKAPKLLIYLASNLESGVPSRFSGSGSGTDFTLTISSLQPEDFATYYCQQNIEDPLTFGGGTKVEIKR
notes: as for B2
As to B6, the Kd with mature human TGF-β2 [4] was under 4 pM; in the assay with mature human TGF-β3 [5] it was 0.926 pM; in the assay with mature human TGF-β1 [6], under 2 pM. For the same molecule, the koff is 0.000218 s⁻¹ with mature human TGF-β2 [4], 2.38e-05 s⁻¹ in the assay with mature human TGF-β3 [5] and 0.000107 s⁻¹ with mature human TGF-β1 [6]. For the same molecule, the on-rate (kon) in the assay with mature human TGF-β2 [4] is over 5e+07 M⁻¹ s⁻¹; with mature human TGF-β3 [5] it was 2.9e+07 M⁻¹ s⁻¹; in the assay with mature human TGF-β1 [6] it was over 5e+07 M⁻¹ s⁻¹. Besides, the “HT-2 cell neutralization assay” value with mature human TGF-β2 [1] is 51.4 ng/mL; with mature human TGF-β3 [2] it was 16.9 ng/mL; in the assay with mature human TGF-β1 [3], 2.62 ng/mL.

B7: mAb 4.17 (antibody, human IgG4 S228P, kappa, V domains shown)
VH: QVQLVQSGAEVKKPGASVKVSCKASGYTFTSYWMNWVRQAPGQGLEWMGQIFPFSGSTNYNEMFEGRVTMTTDTSTSTAYMELRSLRSDDTAVYYCARGIGNYALDAMDYWGQGTLVTVSS
VL: DIQMTQSPSSLSASVGDRVTITCRASESVDFWGNSFMHWYQQKPGKAPKLLIYLASNLESGVPSRFSGSGSGTDFTLTISSLQPEDFATYYCQQNAEDPLTFGGGTKVEIKR
notes: as for B2
On to B7, for which the Kd is 0.529 pM with mature human TGF-β2 [4], 1.53 pM with mature human TGF-β3 [5] and under 0.2 pM with mature human TGF-β1 [6]. Moreover, the koff is 9.86e-06 s⁻¹ with mature human TGF-β2 [4], 2.84e-05 s⁻¹ with mature human TGF-β3 [5] and 9.71e-06 s⁻¹ in the assay with mature human TGF-β1 [6]. The kon in the assay with mature human TGF-β2 [4] was 2.37e+07 M⁻¹ s⁻¹; with mature human TGF-β3 [5], 2.17e+07 M⁻¹ s⁻¹; in the assay with mature human TGF-β1 [6], over 5e+07 M⁻¹ s⁻¹. Also, the entries for the “HT-2 cell neutralization assay” value with mature human TGF-β2 [1], with mature human TGF-β3 [2] and in the assay with mature human TGF-β1 [3] were 3.65 ng/mL, 15.8 ng/mL and 0.42 ng/mL, respectively.

B8: mAb 12.8 (antibody, human IgG4 S228P, kappa, V domains shown)
VH: QVQLVQSGAEVKKPGASVKVSCKASGYTFTSYWMNWVRQAPGQGLEWMGQIFPALGSTNYNEMFEGRVTMTTDTSTSTAYMELRSLRSDDTAVYYCARGIGNYALDAMDYWGQGTLVTVSS
VL: DIQMTQSPSSLSASVGDRVTITCRASESVDWYGNSFMHWYQQKPGKAPKLLIYYASNLESGVPSRFSGSGSGTDFTLTISSLQPEDFATYYCQQNAEDPLTFGGGTKVEIKR
notes: as for B2
In the assay with mature human TGF-β2 [4], B8 showed a Kd of 1 pM, a koff of 1.22e-05 s⁻¹ and a kon of 2.29e+07 M⁻¹ s⁻¹. In the assay with mature human TGF-β3 [5], this molecule yielded a Kd of 0.54 pM, a koff of 1.12e-05 s⁻¹ and a kon of 1.85e+07 M⁻¹ s⁻¹. In the assay with mature human TGF-β1 [6], this molecule registered a Kd of under 0.2 pM, a koff of 7.92e-06 s⁻¹ and a kon of over 5e+07 M⁻¹ s⁻¹.

B9: Fab 4.17 (Fab, V domains shown)
VH: QVQLVQSGAEVKKPGASVKVSCKASGYTFTSYWMNWVRQAPGQGLEWMGQIFPFSGSTNYNEMFEGRVTMTTDTSTSTAYMELRSLRSDDTAVYYCARGIGNYALDAMDYWGQGTLVTVSS
VL: DIQMTQSPSSLSASVGDRVTITCRASESVDFWGNSFMHWYQQKPGKAPKLLIYLASNLESGVPSRFSGSGSGTDFTLTISSLQPEDFATYYCQQNAEDPLTFGGGTKVEIKR
notes: as for B3
Turning to B9, the koff with mature human TGF-β1 [7] is 6e-06 s⁻¹. The molecule further yielded a Kd with mature human TGF-β1 [8] of 0.28 pM. This molecule also gave a kon in the assay with mature human TGF-β1 [9] of 2.2e+07 M⁻¹ s⁻¹.
